Key:
ER-α36 = target: T1, ER-α36 (Homo sapiens, UniProt P03372, I452L); assay: ELISA binding specificity of SNGmB1; settings: plate coated at 1 μg/ml, antibody 0.004-10 μg/ml
T1 construct: made in house; host or cells: E. coli BL21 (DE3)
T1 sequence (P03372 166-310 isoform P03372-4 I279L): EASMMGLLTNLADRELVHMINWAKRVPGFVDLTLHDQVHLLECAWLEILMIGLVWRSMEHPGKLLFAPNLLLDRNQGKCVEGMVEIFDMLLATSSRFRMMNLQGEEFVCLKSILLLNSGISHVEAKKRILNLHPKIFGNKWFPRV
Experimental: The binding specificity of SNGmB1 was assessed using ELISA assay. Five different proteins were used to coat the assay plate at 1 μg/ml. After extensive blocking, the SNGmB1 antibody of different concentrations (10, 2, 0.4, 0.08 and 0.016, 0.004 μg/ml) was added to the assay plate and incubated for 1.5 hours, followed by detection of complex formation using HRP (horse radish peroxidase) labeled anti-mouse IgG Fc (Invitrogen). An example of the data was shown below in FIG. 3. […] The key epitope residues in ER-α36 F domain for SNGmB1 binding have been mapped using both PepScan and Alanine Scan (see Example 5).

[1] = target: T2, ER-α36 expressed on cell surfaces of K562 cells (Homo sapiens, UniProt P03372); assay: FACS analysis of binding to cell surface ER-α36; settings: 100, 20, 4, 0.8, 0.16, 0.032 μg/ml; mouse IgG2b isotype control
T2 construct: endogenous in cells; host or cells: K562, MCF7, SKBR3, MHCC97H
T2 sequence (P03372 1-310 isoform P03372-4): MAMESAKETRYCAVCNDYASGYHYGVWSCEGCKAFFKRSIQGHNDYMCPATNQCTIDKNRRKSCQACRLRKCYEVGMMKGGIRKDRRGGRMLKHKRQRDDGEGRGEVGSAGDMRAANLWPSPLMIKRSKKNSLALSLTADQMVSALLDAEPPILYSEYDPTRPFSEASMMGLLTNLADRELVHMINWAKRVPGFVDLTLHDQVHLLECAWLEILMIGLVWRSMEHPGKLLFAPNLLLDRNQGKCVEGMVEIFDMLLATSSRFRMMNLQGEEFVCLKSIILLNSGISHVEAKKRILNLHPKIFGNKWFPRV
Experimental: (§1) Also examined were the binding of SNGmB1 to a series of human cancer cell lines including K-562 cell, a cell line derived from chronic myeloid leukemia patient; MCF7: a breast cancer cell line expressing both ER-α66 and ER-α36; SKBR3 (ATCC): a breast cancer cell line expressing high levels of HER2; and MHCC97H (ATCC): a highly metastatic hepatocellular carcinoma cell line.
(§2) These cell lines (K562, MCF7, SKBR3, MHCC97H) were cultured in their respective medium to 90% confluence and then the cells were washed with PBS, followed by pretreatment with 0.5 mM EDTA (adherent cell lines) to facilitate removal from substrate. The cells are then collected and centrifuged at 2500 rpm for 5 minutes at 4° C. After counting the cell number, the cells were then resuspended in the block buffer (10% normal goat serum, Invitrogen) to a final concentration of 5-10×10^6 cells/ml, and 100 μl of cells (5×10^5) were transferred to a 1.5 ml EP tube for staining. All those tubes (cells in block buffer) were then laid in a revolver (Grant) for 30 minutes at 4° C. After that the cells were centrifuged at 2500 rpm for 5 minutes at 4° C., the supernatant was discarded, 100 μl of the primary antibody was then added to (1-30 μg/ml final concentration, SNGmB1 or mouse IgG2b isotope control) and incubated in a revolver at 4° C. for 1 hr. The cells were then collected by centrifugation at 2500 rpm for 5 minutes at 4° C. and washed 2 times with PBS solution. The goat anti mouse IgG (H+L) FITC secondary antibody (Invitrogen) were then added at a dilution range of 1:400-800 followed by incubation in a revolver at 4° C. for 1 hr and kept in dark. Following this incubation, free antibody was the removed by washing the cells twice with PBS and the cells were then fixed in 1% paraformaldehyde at room temperature for 10 min and before resuspending the cells in 200-400 μl PBS with 5 μl 7-AAD (BD Biosciences) added for final flow cytometric analysis.
(§3) In FIG. 5A, the “Geom. Mean” refers to Geometric mean fluorescence intensity. […] The cell line was incubated with the SNGmB1 antibody and the binding was tested, according to the similar procedure described above. Mouse IgG2b was used as isotype control.

[2] = target: T3, ER-α36 expressed on cell surfaces of MCF7 cells (Homo sapiens, UniProt P03372); assay: FACS analysis of binding to cell surface ER-α36; settings: mouse IgG2b isotype control
T3 construct: endogenous in cells; host or cells: K562, MCF7, SKBR3, MHCC97H
T3 sequence (P03372 1-310 isoform P03372-4): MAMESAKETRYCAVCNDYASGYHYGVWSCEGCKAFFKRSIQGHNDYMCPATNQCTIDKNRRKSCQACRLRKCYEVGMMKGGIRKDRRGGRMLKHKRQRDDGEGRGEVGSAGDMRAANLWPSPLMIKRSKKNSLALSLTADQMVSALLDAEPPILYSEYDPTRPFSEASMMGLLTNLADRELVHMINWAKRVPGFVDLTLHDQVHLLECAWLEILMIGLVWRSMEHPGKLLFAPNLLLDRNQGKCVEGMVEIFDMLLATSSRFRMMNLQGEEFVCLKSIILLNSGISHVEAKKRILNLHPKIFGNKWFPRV
Experimental: as §1, §2, §3

[3] = target: T4, ER-α36 expressed on cell surfaces of MHCC97H cells (Homo sapiens, UniProt P03372); assay: FACS analysis of binding to cell surface ER-α36; settings: mouse IgG2b isotype control
T4 construct: endogenous in cells; host or cells: K562, MCF7, SKBR3, MHCC97H
T4 sequence (P03372 1-310 isoform P03372-4): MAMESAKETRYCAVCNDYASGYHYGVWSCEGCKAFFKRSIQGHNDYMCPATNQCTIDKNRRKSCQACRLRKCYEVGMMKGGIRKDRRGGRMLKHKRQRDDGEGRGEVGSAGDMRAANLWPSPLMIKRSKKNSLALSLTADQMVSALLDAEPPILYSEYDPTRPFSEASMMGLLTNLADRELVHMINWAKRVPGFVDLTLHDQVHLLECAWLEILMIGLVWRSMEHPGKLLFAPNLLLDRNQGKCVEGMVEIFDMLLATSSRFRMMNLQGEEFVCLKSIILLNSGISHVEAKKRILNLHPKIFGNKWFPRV
Experimental: as §1, §2, §3

[4] = target: T5, ER-α36 expressed on cell surfaces of SKBR3 cells (Homo sapiens, UniProt P03372); assay: FACS analysis of binding to cell surface ER-α36; settings: mouse IgG2b isotype control
T5 construct: endogenous in cells; host or cells: K562, MCF7, SKBR3, MHCC97H
T5 sequence (P03372 1-310 isoform P03372-4): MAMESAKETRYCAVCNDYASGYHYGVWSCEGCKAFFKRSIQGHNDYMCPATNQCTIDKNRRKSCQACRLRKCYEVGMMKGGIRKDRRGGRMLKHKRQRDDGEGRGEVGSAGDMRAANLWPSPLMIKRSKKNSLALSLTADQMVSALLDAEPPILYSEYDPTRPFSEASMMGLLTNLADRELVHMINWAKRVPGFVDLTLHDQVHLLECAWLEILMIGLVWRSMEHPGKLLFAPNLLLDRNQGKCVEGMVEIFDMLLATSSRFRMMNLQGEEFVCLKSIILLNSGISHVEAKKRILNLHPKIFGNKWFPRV
Experimental: as §1, §2, §3

K562 cells = assay: Internalization analysis by surface fluorescence quenching (FACS); type: cell-based, human; settings: 37° C., peak by 24 hours
Experimental: The % internalization=(Qn-Qo)/(Nn-Qo); Qn=MFI (Mean Fluorescence Intensity) for a sample at a specific time point, after quench; Nn=MFI for a sample taken at a specific time point, no quench; Qo=MFI for sample incubated only on ice at 0 hour, after quench.
As the development of antibody drug conjugate relies on the carrier antibody to be internalized to deliver the chemotherapeutic agent into the tumor cells, the ability of SNGmB1 being internalized by K-562 cells was also assessed.
K562 cells were first cultured in normal IMDM medium for 24 hours. On the second day, the cells are collected by centrifugation and washed once with warm PBS, followed by resuspending into culture medium with IMDM without phenol red (Gibco) supplemented with 2.5% charcoal-stripped FBS (Gibo) without phenol red. After culturing for 48 hours, the cells were collected and centrifuged for 5 minutes at 1000 rpm. The cells were then incubated with AlexaFluro488-labelled anti-ER-α36 antibody SNGmB1 37° C. for different time (1, 2, 4, 6, 24 hours) to allow internalization to occur. The internalization was stopped by putting the cells on ice. Antibody internalization analysis of SNGmB1 by K562 cells was performed by surface fluorescence quenching and measured by MFI as detected by FACS. An anti-anti-AlexaFluro488 antibody was used to quench the AlexaFluro488-labeled SNGmB1 antibody bound on the K562 cell surface.

[5] = target: T6, biotinylated GV27 peptide (ER-α36) (Homo sapiens, UniProt P03372); assay: Competition ELISA; type: binding
T6 sequence (P03372 284-310 isoform P03372-4 limits assumed): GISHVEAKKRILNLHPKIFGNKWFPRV
Experimental: The antigen (biotinylated GV27 peptide) was added along with different amount of the competing mouse antibody, the ELISA plates were then allowed to incubate for equilibrium before wash. Streptavidin-HRP (Sigma, S2438, 1:5000) and TMB substrate (Biopanda, China) were added and OD450 was measured on a plate reader. IgG were tested in parallel as control antibody.

binding to Fc-LBD protein (ER-α36): bind to | binding to K562 cells (FACS) [1]: dose-dependent binding | binding to MCF7 cells (FACS) [2]: specific binding | binding to MHCC97H cells (FACS) [3]: specific binding | binding to SKBR3 cells (FACS) [4]: specific binding | competition with SNGmB1 antibody for binding to GV27 peptide / ER-α36 [5]: compete against SNGmB1 antibody
B1: SNGmB1: mouse monoclonal anti-ER-α36 antibody (mIgG2b), light chain SEQ ID NO: 16, heavy chain SEQ ID NO: 18 (antibody, listed as Mus musculus)
heavy: QAYLQQSGAELVRPGASVKMSCKASGYTFTSHNMHWIKQTPRQGLEWIGAIHPVNGDTAYNQKFKGKATLTVDKSSSTAYLQLSSLTSEESAVYFCAREGYGSVDYWGQGTTLTVSSAKTTPPSVYPLAPGCGDTTGSSVTLGCLVKGYFPESVTVTWNSGSLSSSVHTFPALLQSGLYTMSSSVTVPSSTWPSQTVTCSVAHPASSTTVDKKLEPSGPISTINPCPPCKECHKCPAPNLEGGPSVFIFPPNIKDVLMISLTPKVTCVVVDVSEDDPDVQISWFVNNVEVHTAQTQTHREDYNSTIRVVSTLPIQHQDWMSGKEFKCKVNNKDLPSPIERTISKIKGLVRAPQVYILPPPAEQLSRKDVSLTCLVVGFNPGDISVEWTSNGHTEENYKDTAPVLDSDGSYFIYSKLNMKTSKWEKTDSFSCNVRHEGLKNYYLKKTISRSPGK
light: ETTVTQSPASLSMTIGEKVTIRCITSTDIDDDMNWYRKKPGQPPKLLISEGNTLRPGVPSRFSSSGYGTDFVFTIENMLSEDVADYYCLQSDNLPLTFGAGTKLELKRADAAPTVSIFPPSSEQLTSGGASVVCFLNNFYPKDINVKWKIDGSERQNGVLNSWTDQDSKDSTYSMSSTLTLTKDEYERHNSYTCEATHKTSTSPIVKSFNRNEC
percentage of internalized antibody (of the bound antibody) (K562 cells): ~75%
